Assay results taken from patent US20090285813A1 (MMRGLOBAL, published 2009).
Values belong to the binder of their own block, whether it stands above or below them.

Legend:
human CD20 [1] = molecular target: T1, human CD20 (human, UniProt P11836 1-297); test: anti-CD20 cellular ELISA, supernatant; rank 4 of 29
T1 construct: whole, on cells; Target always presented on cells; also called CD20 antigen
T1 sequence (looked up): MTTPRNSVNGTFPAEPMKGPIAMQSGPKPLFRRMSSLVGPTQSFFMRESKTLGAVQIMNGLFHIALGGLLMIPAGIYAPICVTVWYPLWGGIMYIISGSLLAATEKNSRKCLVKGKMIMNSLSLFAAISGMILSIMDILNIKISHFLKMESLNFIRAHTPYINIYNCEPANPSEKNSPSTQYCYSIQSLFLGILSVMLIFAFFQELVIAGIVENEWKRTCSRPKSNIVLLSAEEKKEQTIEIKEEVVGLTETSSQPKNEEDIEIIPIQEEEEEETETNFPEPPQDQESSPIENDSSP

human CD20 [2] = molecular target: T1, human CD20; test: anti-CD20 cellular ELISA, supernatant; rank 8 of 29
human CD20 [3] = molecular target: T1, human CD20; test: anti-CD20 cellular ELISA, supernatant; rank 2 of 29
human CD20 [4] = molecular target: T1, human CD20; test: anti-CD20 cellular ELISA, supernatant; rank 5 of 29
human CD20 [5] = molecular target: T1, human CD20; test: anti-CD20 cellular ELISA, supernatant; rank 6 of 29
human CD20 [6] = molecular target: T1, human CD20; test: anti-CD20 cellular ELISA, supernatant; rank 1 of 29
human CD20 [7] = molecular target: T1, human CD20; test: anti-CD20 cellular ELISA, supernatant; rank 7 of 29
human CD20 [8] = molecular target: T1, human CD20; test: anti-CD20 cellular ELISA, supernatant; rank 3 of 29

B1: anti-CD20 HuFR variant 4 (light chain BD22088, heavy chain BD20337) (antibody, human IgG1, kappa)
heavy: not shown
light: DIVMTQSPLSLPVTPGEPASISCRASSSLSFMHWYQQKPGQPPKLLIYATSNLASGVPSRFSGSGSGTDFTFTISSLQPEDIATYYCHQWSSNPLTFGQGTKVEIKRTVAAPSVFIFPPSDEQLKSGTASVVCLLNNFYPREAKVQWKVDNALQSGNSQESVTEQDSKDSTYSLSSTLTLSKADYEKHKVYACEVTHQGLSSPVTKSFNRGEC
notes: Full-length IgG, unpurified HEK-293 supernatant; also called LC & HC combination 4
- binding result (human CD20 [1]): binds

B2: anti-CD20 HuFR variant 8 (light chain BD22095, heavy chain BD20337) (antibody, human IgG1, kappa)
heavy: not shown
light: EIVMTQSPATLSVSPGERATLSCRASSSLSFMHWYQQKPGQPPKLLIYATSNLASGVPSRFSGSGSGTDFTFTISSLQPEDIATYYCHQWSSNPLTFGQGTKVEIKRTVAAPSVFIFPPSDEQLKSGTASVVCLLNNFYPREAKVQWKVDNALQSGNSQESVTEQDSKDSTYSLSSTLTLSKADYEKHKVYACEVTHQGLSSPVTKSFNRGEC
notes: Full-length IgG, unpurified HEK-293 supernatant; also called LC & HC combination 8
- binding result (human CD20 [2]): binds

B3: anti-CD20 HuFR variant 2 (light chain BD22085, heavy chain BD20335) (antibody, human IgG1, kappa, V domains shown)
VH: QVQLVQSGAEVKKPGASVKVSCKASGYTFTSYNMHWVRQAPGKGLEWMGAIYPGNGDTSYNQKFKGRFTISRDNAKNSLYLQMNSLRAEDTAVYYCARSHYGSNYVDYFDYWGQGTLVTVSS
VL: DIVMTQSPDSLAVSLGERATINCRASSSLSFMHWYQQKPGQAPRLLIYATSNLASGVPSRFSGSGSGTDFTLTISSLQPEDFATYYCHQWSSNPLTFGQGTKVEIKR
notes: Full-length IgG, unpurified HEK-293 supernatant; also called LC & HC combination 2
- binding result (human CD20 [3]): binds

B4: anti-CD20 HuFR variant 5 (light chain BD22087, heavy chain BD20335) (antibody, human IgG1, kappa, V domains shown)
VH: QVQLVQSGAEVKKPGASVKVSCKASGYTFTSYNMHWVRQAPGKGLEWMGAIYPGNGDTSYNQKFKGRFTISRDNAKNSLYLQMNSLRAEDTAVYYCARSHYGSNYVDYFDYWGQGTLVTVSS
VL: EIVLTQSPGTLSLSPGERATLSCRASSSLSFMHWYQQKPGKAPKLLIYATSNLASGVPSRFSGSGSGTEFTLTISSLQPDDFATYYCHQWSSNPLTFGQGTKVEIKR
notes: Full-length IgG, unpurified HEK-293 supernatant; also called LC & HC combination 5
- binding result (human CD20 [4]): binds

Second part, the binder after the results:

- binding result (human CD20 [5]): binds
B5: anti-CD20 HuFR variant 6 (light chain BD22089, heavy chain BD20335) (antibody, human IgG1, kappa, V domains shown)
VH: QVQLVQSGAEVKKPGASVKVSCKASGYTFTSYNMHWVRQAPGKGLEWMGAIYPGNGDTSYNQKFKGRFTISRDNAKNSLYLQMNSLRAEDTAVYYCARSHYGSNYVDYFDYWGQGTLVTVSS
VL: EIVLTQSPATLSLSPGERATLSCRASSSLSFMHWYQQKPGQPPKLLIYATSNLASGVPSRFSGSGSGTDFTFTISSLQPEDIATYYCHQWSSNPLTFGQGTKVEIKR
notes: Full-length IgG, unpurified HEK-293 supernatant; also called LC & HC combination 6

- binding result (human CD20 [6]): binds
B6: anti-CD20 HuFR variant 1 (light chain BD22084, heavy chain BD20332) (antibody, human IgG1, kappa, V domains shown)
VH: QVQLVQSGAEVKKPGASVKVSCKASGYTFTSYNMHWVRQAPGKGLEWVGAIYPGNGDTSYNQKFKGRVTISADKSISTAYLQWSSLKASDTAMYYCARSHYGSNYVDYFDYWGQGTLVTVSS
VL: DIVMTQSPLSLPVTPGEPASISCRASSSLSFMHWYQQKPGQPPKLLIYATSNLASGIPARFSGSGSGTDFTLTISSLEPEDFAVYYCHQWSSNPLTFGQGTKVEIKR
notes: Full-length IgG, unpurified HEK-293 supernatant; also called LC & HC combination 1

- binding result (human CD20 [7]): binds
B7: anti-CD20 HuFR variant 7 (light chain BD22090, heavy chain BD20337) (antibody, human IgG1, kappa, V domains shown)
VH: QVQLVQSGAEVKKPGASVKVSCKASGYTFTSYNMHWVRQAPGQGLEWMGAIYPGNGDTSYNQKFKGRVTISADKSISTAYLQWSSLKASDTAMYYCARSHYGSNYVDYFDYWGQGTLVTVSS
VL: DIVMTQSPLSLPVTPGEPASISCRASSSLSFMHWYLQKPGQSPQLLIYATSNLASGVPDRFSGSGSGTDFTLKISRVEAEDVGVYYCHQWSSNPLTFGQGTKVEIKR
notes: Full-length IgG, unpurified HEK-293 supernatant; also called LC & HC combination 7

- binding result (human CD20 [8]): binds
B8: anti-CD20 HuFR variant 3 (light chain BD22086, heavy chain BD20335) (antibody, human IgG1, kappa, V domains shown)
VH: QVQLVQSGAEVKKPGASVKVSCKASGYTFTSYNMHWVRQAPGKGLEWMGAIYPGNGDTSYNQKFKGRFTISRDNAKNSLYLQMNSLRAEDTAVYYCARSHYGSNYVDYFDYWGQGTLVTVSS
VL: DIVMTQSPLSLPVTPGEPASISCRASSSLSFMHWYQQKPGQAPRLLIYATSNLASGVPDRFSGSGSGTDFTLTISSLQAEDVAVYYCHQWSSNPLTFGQGTKVEIKR
notes: Full-length IgG, unpurified HEK-293 supernatant; also called LC & HC combination 3
